Numbering of substitutions follows the chain as printed. In names and notes the source's numbering stands.
T1: PUF4 RNA-binding domain (Saccharomyces cerevisiae, UniProt P25339 537-888)
T1 sequence: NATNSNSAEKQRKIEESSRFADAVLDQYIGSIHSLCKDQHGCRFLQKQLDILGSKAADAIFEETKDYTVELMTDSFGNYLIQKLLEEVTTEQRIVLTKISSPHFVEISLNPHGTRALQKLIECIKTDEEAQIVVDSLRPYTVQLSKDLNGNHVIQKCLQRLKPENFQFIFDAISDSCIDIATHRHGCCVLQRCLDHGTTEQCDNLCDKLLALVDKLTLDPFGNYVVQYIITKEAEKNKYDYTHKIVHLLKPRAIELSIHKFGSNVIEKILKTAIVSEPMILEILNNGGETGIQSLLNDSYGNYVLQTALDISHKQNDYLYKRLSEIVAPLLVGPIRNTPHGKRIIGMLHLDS

B1: Ic_S4_P5E.1_K5.1_C5.1_H5.1_A5.1_[T5C]_[T6G]_[A7T]_F5.1_[T8G]_[T9C]_[A10C]_T5.1 (ssRNA)
RNA: UUUGACAACUGAUCGUUCUUUCUUGUACGUGCCUUCUUUCUCGAUCAGUUGUCUUU
B2: Ic_S4_P5E.1_K5.1_C5.1_H5.1_A5.1_[T5C]_[T6G]_[A7T]_F5.1_[T8C]_[T9G]_[A10T]_T5.1 (ssRNA)
RNA: B1 RNA with G31C, C32G, C33U
B3: Ic_S4_P5E.1_K5.1_C5.1_H5.1_A5.1_[T6C]_F5.1_[T8A]_[T9A]_[A10C]_T5.1 (ssRNA)
RNA: B1 RNA with C28U, G29C, U30A, G31A, C32A
B4: Ic_S4_P5E.1_K5.1_C5.1_H5.1_A5.1_[T5A]_F5.1_[A10G]_T5.1 (ssRNA)
RNA: B1 RNA with C28A, G29U, U30A, G31U, C32U, C33G
B5: Ic_S4_P5E.1_K5.1_C5.1_H5.1_A5.1_[T5A]_[T6C]_F5.1_[T9G]_[A10C]_T5.1 (ssRNA)
RNA: B1 RNA with C28A, G29C, U30A, G31U, C32G
B6: Ic_S4_P5E.1_K5.1_C5.1_H5.1_A5.1_[T5C]_[T6G]_[A7T]_F5.1_[T8C]_[T9C]_[A10C]_T5.1 (ssRNA)
RNA: B1 RNA with G31C
B7: Ic_S4_P5E.1_K5.1_C5.1_H5.1_A5.1_[T5C]_[T6G]_[A7G]_F5.1_[T9A]_T5.1 (ssRNA)
RNA: B1 RNA with U30G, G31U, C32A, C33A
B8: Ic_S4_P5E.1_K5.1_C5.1_H5.1_A5.1_[T5A]_[A7T]_F5.1_[T8A]_[T9G]_[A10C]_T5.1 (ssRNA)
RNA: B1 RNA with C28A, G29U, G31A, C32G
B9: Ic_S4_P5E.1_K5.1_C5.1_H5.1_A5.1_[T5A]_[T6C]_[A7C]_F5.1_[T9A]_[A10G]_T5.1 (ssRNA)
RNA: B1 RNA with C28A, G29C, U30C, G31U, C32A, C33G
B10: Ic_S4_P5E.1_K5.1_C5.1_H5.1_A5.1_[T5A]_[A7G]_F5.1_[T8C]_[T9A]_[A10T]_T5.1 (ssRNA)
RNA: B1 RNA with C28A, G29U, U30G, G31C, C32A, C33U
B11: Ic_S4_P5E.1_K5.1_C5.1_H5.1_A5.1_[T6C]_F5.1_[T8C]_[T9A]_[A10T]_T5.1 (ssRNA)
RNA: B1 RNA with C28U, G29C, U30A, G31C, C32A, C33U
B12: Ic_S4_P5E.1_K5.1_C5.1_H5.1_A5.1_[T5A]_[T6A]_[A7C]_F5.1_[T8C]_[A10C]_T5.1 (ssRNA)
RNA: B1 RNA with C28A, G29A, U30C, G31C, C32U
B13: Ic_S4_P5E.1_K5.1_C5.1_H5.1_A5.1_[T5A]_[T6A]_[A7C]_F5.1_[T9G]_[A10G]_T5.1 (ssRNA)
RNA: B1 RNA with C28A, G29A, U30C, G31U, C32G, C33G
B14: Ic_S4_P5E.1_K5.1_C5.1_H5.1_A5.1_[T5G]_[A7G]_F5.1_[T8C]_[T9C]_[A10T]_T5.1 (ssRNA)
RNA: B1 RNA with C28G, G29U, U30G, G31C, C33U
B15: Ic_S4_P5E.1_K5.1_C5.1_H5.1_A5.1_[T6A]_[A7T]_F5.1_[T8C]_[T9G]_[A10C]_T5.1 (ssRNA)
RNA: B1 RNA with C28U, G29A, G31C, C32G
B16: Ic_S4_P5E.1_K5.1_C5.1_H5.1_A5.1_[T6C]_[A7C]_F5.1_[T8C]_[T9C]_[A10G]_T5.1 (ssRNA)
RNA: B1 RNA with C28U, G29C, U30C, G31C, C33G
B17: Ic_S4_P5E.1_K5.1_C5.1_H5.1_A5.1_[T5C]_[A7C]_F5.1_[T9C]_[A10G]_T5.1 (ssRNA)
RNA: B1 RNA with G29U, U30C, G31U, C33G
B18: Ic_S4_P5E.1_K5.1_C5.1_H5.1_A5.1_[A7C]_F5.1_[T8G]_[A10G]_T5.1 (ssRNA)
RNA: B1 RNA with C28U, G29U, U30C, C32U, C33G
B19: Ic_S4_P5E.1_K5.1_C5.1_H5.1_A5.1_[T5G]_[T6C]_[A7C]_F5.1_[T8C]_T5.1 (ssRNA)
RNA: B1 RNA with C28G, G29C, U30C, G31C, C32U, C33A
B20: Ic_S4_P5E.1_K5.1_C5.1_H5.1_A5.1_[T5C]_[T6C]_[A7T]_F5.1_[A10T]_T5.1 (ssRNA)
RNA: B1 RNA with G29C, G31U, C32U, C33U
B21: Ic_S4_P5E.1_K5.1_C5.1_H5.1_A5.1_[T5C]_[T6A]_[A7T]_F5.1_[T8G]_[A10G]_T5.1 (ssRNA)
RNA: B1 RNA with G29A, C32U, C33G
B22: Ic_S4_P5E.1_K5.1_C5.1_H5.1_A5.1_[T5G]_[T6C]_[A7T]_F5.1_[T8C]_[T9C]_[A10C]_T5.1 (ssRNA)
RNA: B1 RNA with C28G, G29C, G31C
B23: Ic_S4_P5E.1_K5.1_C5.1_H5.1_A5.1_[T5G]_[T6C]_[A7T]_F5.1_[A10T]_T5.1 (ssRNA)
RNA: B1 RNA with C28G, G29C, G31U, C32U, C33U
B24: Ic_S4_P5E.1_K5.1_C5.1_H5.1_A5.1_[T5A]_[T6C]_[A7T]_F5.1_[T8C]_[T9A]_T5.1 (ssRNA)
RNA: B1 RNA with C28A, G29C, G31C, C32A, C33A
B25: Ic_S4_P5E.1_K5.1_C5.1_H5.1_A5.1_[T5C]_F5.1_[T8C]_[T9A]_[A10C]_T5.1 (ssRNA)
RNA: B1 RNA with G29U, U30A, G31C, C32A
B26: Ic_S4_P5E.1_K5.1_C5.1_H5.1_A5.1_[T6A]_[A7G]_F5.1_[T9A]_[A10C]_T5.1 (ssRNA)
RNA: B1 RNA with C28U, G29A, U30G, G31U, C32A
B27: Ic_S4_P5E.1_K5.1_C5.1_H5.1_A5.1_[T5C]_F5.1_[T8C]_[T9G]_[A10C]_T5.1 (ssRNA)
RNA: B1 RNA with G29U, U30A, G31C, C32G
B28: Ic_S1_P4E.1_K4.1_C4.1_H4.1_A4.1_[T5A]_F4.1_[A9T]_T4.1 (ssRNA)
RNA: UCUCUUUGUAAAUUUUCUCUU
B29: Ib_S1_P4E.1_K4.1_C4.1_H4.1_A4.1_[T5C]_F4.1_[A9C]_T4.1 (ssRNA)
RNA: UCUCUUUGUACAUUCUCUCUU

The binders below were run against T1, PUF4 RNA-binding domain (assay: Mg; RNA-MaP; 20 mM Na-HEPES pH 7.4, 30 mM KOAc, 0.75 mM MgCl2, 0.1% Tween-20, 5% glycerol, 0.1 mg/mL BSA, 2 mM DTT; 25 C; 0.0125-409.6 nM protein). Settings: tags: N-His6-TEV cleaved; C-SNAP kept, Cy3B-labelled; label: tethered on chip by stalled RNA polymerase.

B1 and B2 are within 1.5-fold of each other in Kd: 125 nM for the first, 167 nM for the second.

First: B3
Second: B4
The Kd of the first is 6.4-fold higher: 156 nM for the first, 24.3 nM for the second. The second binds more tightly here.

Compared with B5, B6 is 4.4-fold higher in Kd: 25.7 nM for the first, 114 nM for the second. The first binds more tightly here.

Compared with B7, B8 is 8.8-fold higher in Kd: 38.4 nM for the first, 338 nM for the second.

Going from B9 to B10, the Kd rises from 48.7 nM to 844 nM (17-fold).

B11 and B12 are within 1.5-fold of each other in Kd: 183 nM for the first, 233 nM for the second.

First: B13
Second: B14
The Kd of the first is 3.4-fold lower: 280 nM for the first, 956 nM for the second.

Compared with B15, B16 is 31-fold higher in Kd: 21.8 nM for the first, 674 nM for the second. The first binds more tightly here.

Compared with B17, B18 is 1.8-fold lower in Kd: 120 nM for the first, 66.3 nM for the second. The second binds more tightly here.

Compared with B19, B20 is 1.6-fold lower in Kd: 19.6 nM for the first, 12.3 nM for the second.

Going from B21 to B22, the Kd rises from 24 nM to 658 nM (27-fold).

First: B23
Second: B24
The Kd of the first is 25-fold lower: 34.7 nM for the first, 857 nM for the second. The first binds more tightly here.

First: B25
Second: B26
The Kd of the first is 140-fold higher: 540 nM for the first, 3.94 nM for the second.

Going from B27 to B28, the Kd falls from 499 nM to 18.3 nM (27-fold). The second binds more tightly here.

In the case of B29, the Kd is reported as 5.41 nM.
